Experimental findings from the supplement of paper PMC7877785 are described below.

The nature of this data set: self-splicing fitness, log relative to wild type (ln ratio); higher = more splicing; Tetrahymena group I intron in knt gene, E. coli kanamycin selection, DiMSum; sequences stand for … in CUCUCU…GGAGGGAAAAGUUAUCAGGCAUGCACCUGGUAGCUAGUCUUUAAACCAAUAGAUUGCAUCGGUUUAAAAGGCAAGACCGUCAAAUUGCGGGAAAGGGGUCAACAGCCGUUCAGUACCAAGUCUCAGGGGAAACUUUGAGAUGGCCUUGCAAAGGGUAUGGUAAUAAGCUGACGGACAUGGUCCUAACCACGCAGCCAAGUCCUAAGUCAACAGAUCUUCUGUUGAUAUGGAUGCAGUUCACAGACUAAAUGUCGGUCGGGGAAGAUGUAUUCUUCUCAUAAGAUAUAGUCGGACCUCUCCUUAAUGGGAGCUAGCGGAUGAAGUGAUGCAACACUGGAGCCGCUGGGAACUAAUUUGUAUGCGAAAGUAUAUUGAUUAGUUUUGGAGUACUCGUGGUCG
An outline of the steps:
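A randomised library covering all eight P1ex-region intron nucleotides was built with the intron in the knt kanamycin-resistance gene on pET-22b(+) and held in E. coli BL21(DE3). Cells were grown overnight at 37°C or 30°C on LB agar, with or without 25 μg/mL kanamycin, plus 100 μg/mL carbenicillin, 50 μM IPTG and 0.2% rhamnose, and pooled colonies were amplicon-sequenced on an Illumina HiSeq 2500. DiMSum fitness is the error-weighted combination of wild-type-normalised replicate fold changes, kanamycin versus none.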

± gives the uncertainty stated by the source.

In the case of UAGUAGCAAUAUUACGUGCA, the “self-splicing fitness (ln)” value (30 °C) was -0.861 ± 0.12 and the “self-splicing fitness (ln)” value (37 °C) was -0.189 ± 0.11.

AGAAAGCAAUAUUACGGCUU: the “self-splicing fitness (ln)” value is, setting by setting: (30 °C) -1.26 ± 0.072; (37 °C) -0.7 ± 0.089. For the sequence CAGGAGCAAUAUUACGUGGU, the “self-splicing fitness (ln)” value is -4.08 ± 0.23 (30 °C) and -3.15 ± 0.23 (37 °C). In the case of AUUGAGCAAUAUUACGGCUA, the “self-splicing fitness (ln)” value by setting is: (30 °C) -1.73 ± 0.37; (37 °C) -0.81 ± 0.21. For CUUUAGCAAUAUUACGUUAC, the “self-splicing fitness (ln)” value (30 °C) was -3.92 ± 0.34 and the “self-splicing fitness (ln)” value (37 °C) is -1.74 ± 0.29. As for UAAAAGCAAUAUUACGGACG, the “self-splicing fitness (ln)” value by setting is: (30 °C) 0.221 ± 0.11; (37 °C) 0.00931 ± 0.13. Consider UAAUAGCAAUAUUACGAUAG, for which the “self-splicing fitness (ln)” value was -2.06 ± 0.27 (30 °C) and -2.99 ± 0.38 (37 °C). With GGAUAGCAAUAUUACGACUG, the “self-splicing fitness (ln)” value reads like this: (30 °C) -0.737 ± 0.15; (37 °C) -1.08 ± 0.19. Turning to AUGCAGCAAUAUUACGAAAA, the “self-splicing fitness (ln)” value (37 °C) was -2.23 ± 0.42. Turning to AUCCAGCAAUAUUACGCUAC, the “self-splicing fitness (ln)” value by setting is: (30 °C) -4.03 ± 0.3; (37 °C) -1.95 ± 0.24. As to CUAUAGCAAUAUUACGCGCA, the “self-splicing fitness (ln)” value is -2.97 ± 0.46 (30 °C) and -1.65 ± 0.47 (37 °C). Consider CGUCAGCAAUAUUACGGGCU, for which the “self-splicing fitness (ln)” value by setting is: (30 °C) -1.31 ± 0.078; (37 °C) -0.668 ± 0.082. Regarding CCCCAGCAAUAUUACGUUUU, the “self-splicing fitness (ln)” value is -4.12 ± 0.14 (30 °C) and -2.55 ± 0.11 (37 °C).

Regarding CUUAAGCAAUAUUACGCUGC, under “37 °C”, the “self-splicing fitness (ln)” value was -1 ± 0.35. Take AGUGAGCAAUAUUACGGUUG: the “self-splicing fitness (ln)” value (30 °C) was -3.38 ± 0.27 and the “self-splicing fitness (ln)” value (37 °C) was -1.92 ± 0.24. Regarding GGAUAGCAAUAUUACGAGGA, the “self-splicing fitness (ln)” value is -3.28 ± 0.25 (30 °C) and -1.15 ± 0.17 (37 °C). As to CACCAGCAAUAUUACGGCAG, the “self-splicing fitness (ln)” value reads like this: (30 °C) -0.179 ± 0.045; (37 °C) -0.218 ± 0.063. Turning to GUUAAGCAAUAUUACGGUUU, the “self-splicing fitness (ln)” value (30 °C) is -0.85 ± 0.094 and the “self-splicing fitness (ln)” value (37 °C) was -1.5 ± 0.12.

As to CUUCAGCAAUAUUACGUAAC, the “self-splicing fitness (ln)” value reads like this: (30 °C) -2.65 ± 0.32; (37 °C) -2.27 ± 0.45. With UUUAAGCAAUAUUACGGCCG, the “self-splicing fitness (ln)” value is, setting by setting: (30 °C) -0.19 ± 0.21; (37 °C) -0.0514 ± 0.26. Turning to GGAAAGCAAUAUUACGUCUG, the “self-splicing fitness (ln)” value was -0.579 ± 0.054 (30 °C) and 0.2 ± 0.07 (37 °C). Consider GCCCAGCAAUAUUACGUUCC, for which the “self-splicing fitness (ln)” value is, setting by setting: (30 °C) -1.28 ± 0.096; (37 °C) -0.603 ± 0.14. The corresponding values for UAUCAGCAAUAUUACGCGGU are -2.68 ± 0.13 and -2.97 ± 0.27. On the same counts, the results for GGACAGCAAUAUUACGAUUU are 0.167 ± 0.047 and 0.417 ± 0.065. For AUCUAGCAAUAUUACGCGGG, the “self-splicing fitness (ln)” value reads like this: (30 °C) -3.32 ± 0.26; (37 °C) -2.12 ± 0.23. For CUUUAGCAAUAUUACGUCGU, the “self-splicing fitness (ln)” value is, setting by setting: (30 °C) -2.27 ± 0.36; (37 °C) -3.05 ± 0.37. On the same counts, the results for GCCGAGCAAUAUUACGGCCC are -2.4 ± 0.19 and -1.93 ± 0.24. For GAACAGCAAUAUUACGGACC, the “self-splicing fitness (ln)” value by setting is: (30 °C) -0.915 ± 0.12; (37 °C) 0.0387 ± 0.14. As for GCCUAGCAAUAUUACGUAUU, the “self-splicing fitness (ln)” value (30 °C) is -1.83 ± 0.098 and the “self-splicing fitness (ln)” value (37 °C) was -1.73 ± 0.14. The corresponding values for CGUAAGCAAUAUUACGAUCU are -2.36 ± 0.15 and -0.243 ± 0.11. On the same counts, the results for CACUAGCAAUAUUACGAGGA are -4.01 ± 0.31 and -1.49 ± 0.15. In the case of GUCAAGCAAUAUUACGCCCA, the “self-splicing fitness (ln)” value is, setting by setting: (30 °C) -1.4 ± 0.15; (37 °C) -1.11 ± 0.14. For the sequence ACAUAGCAAUAUUACGGCGU, the “self-splicing fitness (ln)” value was -0.355 ± 0.07 (30 °C) and 0.246 ± 0.081 (37 °C).

Take CCCCAGCAAUAUUACGCCUC: the “self-splicing fitness (ln)” value runs as follows: (30 °C) -3.25 ± 0.21; (37 °C) -1.6 ± 0.21. AGGAAGCAAUAUUACGUUUG: the “self-splicing fitness (ln)” value is -3.55 ± 0.17 (30 °C) and -2.48 ± 0.19 (37 °C). With CAGUAGCAAUAUUACGGGUA, the “self-splicing fitness (ln)” value was -3.45 ± 0.4 (30 °C) and -1.01 ± 0.18 (37 °C). Regarding ACUGAGCAAUAUUACGGCCC, the “self-splicing fitness (ln)” value is, setting by setting: (30 °C) -1.95 ± 0.3; (37 °C) -0.993 ± 0.26.

Regarding UCGCAGCAAUAUUACGACUC, the “self-splicing fitness (ln)” value (30 °C) is -3.5 ± 0.27 and the “self-splicing fitness (ln)” value (37 °C) was -2.32 ± 0.27. Regarding UCCGAGCAAUAUUACGUAUA, the “self-splicing fitness (ln)” value is -3.79 ± 0.29 (30 °C) and -2.54 ± 0.24 (37 °C).

UAAAAGCAAUAUUACGCUGU: the “self-splicing fitness (ln)” value is, setting by setting: (30 °C) -3.01 ± 0.23; (37 °C) -2.26 ± 0.2. As to AUAGAGCAAUAUUACGGCAC, the “self-splicing fitness (ln)” value was -1.75 ± 0.14 (30 °C) and -0.686 ± 0.2 (37 °C). Regarding UGCAAGCAAUAUUACGCGAU, the “self-splicing fitness (ln)” value reads like this: (30 °C) -3.34 ± 0.17; (37 °C) -2.15 ± 0.2.

In the case of GGAAAGCAAUAUUACGCAUA, the “self-splicing fitness (ln)” value was -0.868 ± 0.1 (30 °C) and -1.5 ± 0.12 (37 °C). As for UAGCAGCAAUAUUACGGGAA, the “self-splicing fitness (ln)” value is -2.47 ± 0.19 (30 °C) and -1.41 ± 0.18 (37 °C). In the case of GUUAAGCAAUAUUACGUAGU, the “self-splicing fitness (ln)” value is -2.06 ± 0.16 (30 °C) and -0.895 ± 0.14 (37 °C). Take CACCAGCAAUAUUACGAGCU: the “self-splicing fitness (ln)” value is, setting by setting: (30 °C) -3.87 ± 0.16; (37 °C) -3.55 ± 0.27. UUGCAGCAAUAUUACGGAGA: the “self-splicing fitness (ln)” value runs as follows: (30 °C) -1.85 ± 0.12; (37 °C) -1.08 ± 0.096.

Consider ACGUAGCAAUAUUACGCUGA, for which the “self-splicing fitness (ln)” value was -1.81 ± 0.089 (30 °C) and -0.483 ± 0.085 (37 °C). With CGACAGCAAUAUUACGAUGA, the “self-splicing fitness (ln)” value (30 °C) was -0.751 ± 0.075 and the “self-splicing fitness (ln)” value (37 °C) was -0.41 ± 0.075. Regarding AGAAAGCAAUAUUACGGAUA, the “self-splicing fitness (ln)” value runs as follows: (30 °C) -2.15 ± 0.15; (37 °C) -1.77 ± 0.15. In the case of GACUAGCAAUAUUACGAUCU, the “self-splicing fitness (ln)” value is -0.896 ± 0.087 (30 °C) and -1.38 ± 0.096 (37 °C).

With CAUGAGCAAUAUUACGCGCU, the “self-splicing fitness (ln)” value was -3.58 ± 0.42 (30 °C) and -2.21 ± 0.4 (37 °C). As for GGACAGCAAUAUUACGGGAC, the “self-splicing fitness (ln)” value runs as follows: (30 °C) -1.56 ± 0.13; (37 °C) -1.98 ± 0.19.

In the case of AGCGAGCAAUAUUACGGCAC, the “self-splicing fitness (ln)” value is, setting by setting: (30 °C) -1.57 ± 0.22; (37 °C) -0.495 ± 0.3. As to UCGAAGCAAUAUUACGUAUG, the “self-splicing fitness (ln)” value (30 °C) is -2.78 ± 0.16 and the “self-splicing fitness (ln)” value (37 °C) was -1.33 ± 0.15. On the same counts, the results for UCUCAGCAAUAUUACGUAGG are -0.566 ± 0.053 and -0.133 ± 0.1.

On to GGUUAGCAAUAUUACGAUGU, for which the “self-splicing fitness (ln)” value is -0.65 ± 0.14 (30 °C) and -0.087 ± 0.15 (37 °C). On the same counts, the results for CCCAAGCAAUAUUACGGUCU are -4.2 ± 0.2 and -2.64 ± 0.14.

On to AGGCAGCAAUAUUACGUCCA, for which the “self-splicing fitness (ln)” value reads like this: (30 °C) -0.459 ± 0.051; (37 °C) 0.0124 ± 0.078.

Consider ACUAAGCAAUAUUACGAAUU, for which the “self-splicing fitness (ln)” value (30 °C) is -2.52 ± 0.096 and the “self-splicing fitness (ln)” value (37 °C) was -0.972 ± 0.089.
